These results are taken from patent US12427210B2, “Compounds comprising a fibroblast activation protein ligand and use thereof” (priority 2019, dated 2025).

Assay [1] concerns the target recombinant human PREP (R&D systems, #4308-SE) (human) (UniProt P48147).
The target of assay [2] is Recombinant human DPP4 (R&D systems #9168-SE) (human) (UniProt P27487).
The target of assay [3] is Recombinant human FAP (R&D systems, #3715-SE) (human).
Assay [4] deals with T1, DPP3 (Homo sapiens (Human)) (UniProt Q9NY33).
T1 sequence: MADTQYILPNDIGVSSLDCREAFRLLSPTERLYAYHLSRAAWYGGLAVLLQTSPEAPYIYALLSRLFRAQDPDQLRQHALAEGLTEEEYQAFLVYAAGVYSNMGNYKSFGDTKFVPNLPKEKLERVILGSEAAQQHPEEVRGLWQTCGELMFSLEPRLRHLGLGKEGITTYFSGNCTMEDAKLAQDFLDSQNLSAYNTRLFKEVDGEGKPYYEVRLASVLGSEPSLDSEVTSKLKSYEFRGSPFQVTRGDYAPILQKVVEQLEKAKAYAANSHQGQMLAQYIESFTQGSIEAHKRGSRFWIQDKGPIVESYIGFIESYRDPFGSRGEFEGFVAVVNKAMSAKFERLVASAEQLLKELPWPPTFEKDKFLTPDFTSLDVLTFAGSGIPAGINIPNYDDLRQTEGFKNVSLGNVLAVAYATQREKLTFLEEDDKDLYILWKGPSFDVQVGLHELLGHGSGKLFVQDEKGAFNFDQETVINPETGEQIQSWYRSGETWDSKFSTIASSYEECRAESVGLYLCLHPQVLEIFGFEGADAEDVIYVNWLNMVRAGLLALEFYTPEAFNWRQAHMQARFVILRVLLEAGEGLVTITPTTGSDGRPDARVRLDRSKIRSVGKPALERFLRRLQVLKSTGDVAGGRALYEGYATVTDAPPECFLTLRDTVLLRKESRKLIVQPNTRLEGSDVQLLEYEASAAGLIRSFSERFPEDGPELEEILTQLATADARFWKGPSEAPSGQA

Chain of recombinant human PREP (R&D systems, #4308-SE) (human) (P48147 whole entry): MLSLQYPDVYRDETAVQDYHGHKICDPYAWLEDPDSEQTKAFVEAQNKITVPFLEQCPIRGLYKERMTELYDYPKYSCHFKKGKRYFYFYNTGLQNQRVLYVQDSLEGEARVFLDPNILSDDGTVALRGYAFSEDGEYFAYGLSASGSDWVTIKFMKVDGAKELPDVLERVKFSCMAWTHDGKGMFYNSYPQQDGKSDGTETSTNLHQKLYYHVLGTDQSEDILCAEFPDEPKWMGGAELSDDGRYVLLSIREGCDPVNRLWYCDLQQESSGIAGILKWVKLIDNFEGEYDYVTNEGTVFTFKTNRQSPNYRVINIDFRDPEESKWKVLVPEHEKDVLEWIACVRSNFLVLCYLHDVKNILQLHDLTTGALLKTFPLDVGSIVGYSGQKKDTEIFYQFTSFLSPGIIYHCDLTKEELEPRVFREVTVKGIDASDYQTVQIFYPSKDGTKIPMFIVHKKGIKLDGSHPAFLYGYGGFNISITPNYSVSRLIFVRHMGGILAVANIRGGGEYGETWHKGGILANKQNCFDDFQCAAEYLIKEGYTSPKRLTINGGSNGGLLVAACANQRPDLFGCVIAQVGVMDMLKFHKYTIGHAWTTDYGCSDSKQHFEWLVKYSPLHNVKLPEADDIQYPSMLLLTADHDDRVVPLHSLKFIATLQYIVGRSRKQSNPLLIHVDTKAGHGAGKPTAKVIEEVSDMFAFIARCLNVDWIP
Chain of Recombinant human FAP (R&D systems, #3715-SE) (human) (chain, as listed by the source limits assumed): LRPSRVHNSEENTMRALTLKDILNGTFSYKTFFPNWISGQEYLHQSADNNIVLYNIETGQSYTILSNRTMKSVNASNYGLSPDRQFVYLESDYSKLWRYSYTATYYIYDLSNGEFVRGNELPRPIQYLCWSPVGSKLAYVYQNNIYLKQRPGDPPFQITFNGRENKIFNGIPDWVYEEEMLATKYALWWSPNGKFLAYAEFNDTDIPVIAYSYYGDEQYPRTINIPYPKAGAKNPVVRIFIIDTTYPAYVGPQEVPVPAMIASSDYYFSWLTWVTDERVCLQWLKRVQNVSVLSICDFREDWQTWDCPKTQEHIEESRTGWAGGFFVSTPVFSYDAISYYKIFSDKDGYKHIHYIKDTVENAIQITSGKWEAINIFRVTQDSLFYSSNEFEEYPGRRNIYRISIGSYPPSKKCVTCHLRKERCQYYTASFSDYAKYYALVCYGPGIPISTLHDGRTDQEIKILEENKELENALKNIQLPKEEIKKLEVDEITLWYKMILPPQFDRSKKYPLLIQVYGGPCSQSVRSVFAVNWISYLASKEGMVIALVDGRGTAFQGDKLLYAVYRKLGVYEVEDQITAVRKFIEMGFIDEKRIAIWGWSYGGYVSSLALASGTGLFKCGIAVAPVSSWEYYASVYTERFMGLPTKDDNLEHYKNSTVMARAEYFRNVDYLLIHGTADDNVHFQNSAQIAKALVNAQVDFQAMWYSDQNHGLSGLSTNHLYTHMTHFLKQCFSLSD

With “Hex-[Cys(tMeBn(DOTA-PP))-Pro-Pro-Thr-Gln-Phe-Cys]-Asp-NH2 (3BP-3407) (peptide)”, the pIC50 (PREP) in assay [1] was under 6 pIC50. Moreover, in assay [2], the pIC50 (DPP4) was under 6 pIC50. The pIC50 Category (Activity) in assay [3] is over 8 pIC50.
As to “Hex-[Cys(tMeBn(DOTA-AET))-Pro-Pro-Thr-Gln-Phe-Cys]-OH (3BP-3554) (peptide)”, in assay [4], the Percentage inhibition (%) (% inhibition at 10 µM) is -1.
